T1: D2H receptor domain (human D2H transporter, amino acid residues 387-685), His-tag fusion protein (human, UniProt Q07837 387-685)
T1 construct: purified under denaturing conditions; also called recombinant D2H; not shown: poly-histidine tag (pET vector) at the NH2-terminal end
T1 sequence: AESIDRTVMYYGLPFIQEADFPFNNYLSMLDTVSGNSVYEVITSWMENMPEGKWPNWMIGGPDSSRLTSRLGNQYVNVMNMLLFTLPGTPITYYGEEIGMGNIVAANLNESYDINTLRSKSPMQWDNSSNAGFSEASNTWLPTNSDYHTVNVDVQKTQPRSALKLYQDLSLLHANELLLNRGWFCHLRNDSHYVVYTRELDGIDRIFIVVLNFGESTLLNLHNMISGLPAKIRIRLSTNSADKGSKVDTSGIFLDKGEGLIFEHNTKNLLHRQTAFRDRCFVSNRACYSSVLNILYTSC

T2: hPEPT1 receptor domain (human PEPT1, amino acid residues 391-571), His-tag fusion protein (human, UniProt P46059 391-571)
T2 construct: purified under denaturing conditions; also called recombinant hPEPT1; not shown: poly-histidine tag (pET vector) at the NH2-terminal end
T2 sequence: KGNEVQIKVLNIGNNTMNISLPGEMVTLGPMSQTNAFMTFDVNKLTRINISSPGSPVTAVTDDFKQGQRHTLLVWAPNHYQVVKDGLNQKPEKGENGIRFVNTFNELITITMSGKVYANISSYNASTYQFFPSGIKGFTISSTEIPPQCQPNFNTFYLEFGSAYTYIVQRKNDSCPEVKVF

T3: HPT1 receptor domain (human intestinal peptide-associated transporter HPT1, amino acid residues 29-273), … (human, UniProt Q12864 29-273)
T3 construct: purified under denaturing conditions; also called recombinant HPT1; not shown: poly-histidine tag (pET vector) at the NH2-terminal end
T3 sequence: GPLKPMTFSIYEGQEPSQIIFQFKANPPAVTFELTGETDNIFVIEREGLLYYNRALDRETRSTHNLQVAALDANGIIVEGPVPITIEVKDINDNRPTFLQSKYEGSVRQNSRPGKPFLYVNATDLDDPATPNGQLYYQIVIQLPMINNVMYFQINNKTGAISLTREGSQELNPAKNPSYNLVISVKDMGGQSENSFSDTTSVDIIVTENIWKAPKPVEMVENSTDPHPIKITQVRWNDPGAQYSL

B1: DCX33 (peptide)
peptide: RWNWTVLPATGGHYWTRSTDYHAINNHRPSIPHQHPTPIAETVESCLAKPHTENSFTNVWKDDKTLDRYANYEGCLWNATGVVVCTGDETQCYGTWVPIGLAIPENEGGGSEGGGSEGGGSEGGGTKPPEYGDTPIPGYTYINPLDGTYPPGTEQNPANPNPSLEESQPLNTFMFQNNRFRNRQGALTVYTGTVTQGTDPVKTYYQYTPVSSKAMYDAYWNGKFRDCAFHSGFNEDPFVCEYQGQSSDLPQPPVNAGGGSGGGSGGGSEGGGSEGGGSEGGGSEGGGSGGGSGSGDFDYEKMANANKGAMTENADENALQSDAKGKLDSVATDYGAAIDGFIGDVSGLANGNGATGDFAGSNSQMAQVGDGDNSPLMNNFRQYLPSLPQSVECRPFVFSAGKPYEFSIDCDKINLFRGVFAFLLYVATFMYVFSTFANILRNKES
notes: Assayed as M13 phage clone displaying the insert
B2: P31 (peptide)
peptide: SARDSGPAEDGSRAVRLNGVENANTRKSSRSNPRGRRHPAETVESCLAKPHTENSFTNVWKDDKTLDRYANYEGCLWNATGVVVCTGDETQCYGTWVPIGLAIPENEGGGSEGGGSEGGGSEGGGTKPPEYGDTPIPGYTYINPLDGTYPPGTEQNPANPNPSLEESQPLNTFMFQNNRFRNRQGALTVYTGTVTQGTDPVKTYYQYTPVSSKAMYDAYWNGKFRDCAFHSGFNEDPFVCEYQGQSSDLPQPPVNAGGGSGGGSGGGSEGGGSEGGGSEGGGSEGGGSGGGSGSGDFDYEKMANANKGAMTENADENALQSDAKGKLDSVATDYGAAIDGFIGDVSGLANGNGATGDFAGSNSQMAQVGDGDNSPLMNNFRQYLPSLPQSVECRPFVFSAGKPYEFSIDCDKINLFRGVFAFLLYVATFMYVFSTFANILRNKES
notes: as for B1
B3: SNiAX8 (peptide)
peptide: SPKLSSVGVMTKVTELPTEGPNAISIPISATLGPRNPLRAETVESCLAKPHTENSFTNVWKDDKTLDRYANYEGCLWNATGVVVCTGDETQCYGTWVPIGLAIPENEGGGSEGGGSEGGGSEGGGTKPPEYGDTPIPGYTYINPLDGTYPPGTEQNPANPNPSLEESQPLNTFMFQNNRFRNRQGALTVYTGTVTQGTDPVKTYYQYTPVSSKAMYDAYWNGKFRDCAFHSGFNEDPFVCEYQGQSSDLPQPPVNAGGGSGGGSGGGSEGGGSEGGGSEGGGSEGGGSGGGSGSGDFDYEKMANANKGAMTENADENALQSDAKGKLDSVATDYGAAIDGFIGDVSGLANGNGATGDFAGSNSQMAQVGDGDNSPLMNNFRQYLPSLPQSVECRPFVFSAGKPYEFSIDCDKINLFRGVFAFLLYVATFMYVFSTFANILRNKES
notes: as for B1
B4: DCX45 (peptide)
peptide: SVGNDKTSRPVSFYGRVSDLWNASLMPKRTPSSKRHDDGAETVESCLAKPHTENSFTNVWKDDKTLDRYANYEGCLWNATGVVVCTGDETQCYGTWVPIGLAIPENEGGGSEGGGSEGGGSEGGGTKPPEYGDTPIPGYTYINPLDGTYPPGTEQNPANPNPSLEESQPLNTFMFQNNRFRNRQGALTVYTGTVTQGTDPVKTYYQYTPVSSKAMYDAYWNGKFRDCAFHSGFNEDPFVCEYQGQSSDLPQPPVNAGGGSGGGSGGGSEGGGSEGGGSEGGGSEGGGSGGGSGSGDFDYEKMANANKGAMTENADENALQSDAKGKLDSVATDYGAAIDGFIGDVSGLANGNGATGDFAGSNSQMAQVGDGDNSPLMNNFRQYLPSLPQSVECRPFVFSAGKPYEFSIDCDKINLFRGVFAFLLYVATFMYVFSTFANILRNKES
notes: as for B1
B5: DCX42 (peptide)
peptide: RYSGLSPRDNGPACSQEATLEGCGAQRLMSTRRKGRNSRPGWTLAETVESCLAKPHTENSFTNVWKDDKTLDRYANYEGCLWNATGVVVCTGDETQCYGTWVPIGLAIPENEGGGSEGGGSEGGGSEGGGTKPPEYGDTPIPGYTYINPLDGTYPPGTEQNPANPNPSLEESQPLNTFMFQNNRFRNRQGALTVYTGTVTQGTDPVKTYYQYTPVSSKAMYDAYWNGKFRDCAFHSGFNEDPFVCEYQGQSSDLPQPPVNAGGGSGGGSGGGSEGGGSEGGGSEGGGSEGGGSGGGSGSGDFDYEKMANANKGAMTENADENALQSDAKGKLDSVATDYGAAIDGFIGDVSGLANGNGATGDFAGSNSQMAQVGDGDNSPLMNNFRQYLPSLPQSVECRPFVFSAGKPYEFSIDCDKINLFRGVFAFLLYVATFMYVFSTFANILRNKES
notes: as for B1
B6: DCX36 (peptide)
peptide: SWSSWNWSSKTTRLGDRATREGCGPSQSDGCPYNGRLTTVKPRTAETVESCLAKPHTENSFTNVWKDDKTLDRYANYEGCLWNATGVVVCTGDETQCYGTWVPIGLAIPENEGGGSEGGGSEGGGSEGGGTKPPEYGDTPIPGYTYINPLDGTYPPGTEQNPANPNPSLEESQPLNTFMFQNNRFRNRQGALTVYTGTVTQGTDPVKTYYQYTPVSSKAMYDAYWNGKFRDCAFHSGFNEDPFVCEYQGQSSDLPQPPVNAGGGSGGGSGGGSEGGGSEGGGSEGGGSEGGGSGGGSGSGDFDYEKMANANKGAMTENADENALQSDAKGKLDSVATDYGAAIDGFIGDVSGLANGNGATGDFAGSNSQMAQVGDGDNSPLMNNFRQYLPSLPQSVECRPFVFSAGKPYEFSIDCDKINLFRGVFAFLLYVATFMYVFSTFANILRNKES
notes: as for B1
B7: DCX39 (peptide)
peptide: SGSLNAWQPRSWVGGAFRSHANNNLNPKPTMVTRHPTAETVESCLAKPHTENSFTNVWKDDKTLDRYANYEGCLWNATGVVVCTGDETQCYGTWVPIGLAIPENEGGGSEGGGSEGGGSEGGGTKPPEYGDTPIPGYTYINPLDGTYPPGTEQNPANPNPSLEESQPLNTFMFQNNRFRNRQGALTVYTGTVTQGTDPVKTYYQYTPVSSKAMYDAYWNGKFRDCAFHSGFNEDPFVCEYQGQSSDLPQPPVNAGGGSGGGSGGGSEGGGSEGGGSEGGGSEGGGSGGGSGSGDFDYEKMANANKGAMTENADENALQSDAKGKLDSVATDYGAAIDGFIGDVSGLANGNGATGDFAGSNSQMAQVGDGDNSPLMNNFRQYLPSLPQSVECRPFVFSAGKPYEFSIDCDKINLFRGVFAFLLYVATFMYVFSTFANILRNKES
notes: as for B1
B8: DCX26 (peptide)
peptide: SGRTTSEISGLWGWGDDRSGYGWGNTLRPNYIPYRQATNRHRYTAETVESCLAKPHTENSFTNVWKDDKTLDRYANYEGCLWNATGVVVCTGDETQCYGTWVPIGLAIPENEGGGSEGGGSEGGGSEGGGTKPPEYGDTPIPGYTYINPLDGTYPPGTEQNPANPNPSLEESQPLNTFMFQNNRFRNRQGALTVYTGTVTQGTDPVKTYYQYTPVSSKAMYDAYWNGKFRDCAFHSGFNEDPFVCEYQGQSSDLPQPPVNAGGGSGGGSGGGSEGGGSEGGGSEGGGSEGGGSGGGSGSGDFDYEKMANANKGAMTENADENALQSDAKGKLDSVATDYGAAIDGFIGDVSGLANGNGATGDFAGSNSQMAQVGDGDNSPLMNNFRQYLPSLPQSVECRPFVFSAGKPYEFSIDCDKINLFRGVFAFLLYVATFMYVFSTFANILRNKES
notes: as for B1
B9: HCA3 (peptide)
peptide: RHISEYSFANSHLMGGESKRKGCGINGSFSPTCPRSPTPAFRRTAETVESCLAKPHTENSFTNVWKDDKTLDRYANYEGCLWNATGVVVCTGDETQCYGTWVPIGLAIPENEGGGSEGGGSEGGGSEGGGTKPPEYGDTPIPGYTYINPLDGTYPPGTEQNPANPNPSLEESQPLNTFMFQNNRFRNRQGALTVYTGTVTQGTDPVKTYYQYTPVSSKAMYDAYWNGKFRDCAFHSGFNEDPFVCEYQGQSSDLPQPPVNAGGGSGGGSGGGSEGGGSEGGGSEGGGSEGGGSGGGSGSGDFDYEKMANANKGAMTENADENALQSDAKGKLDSVATDYGAAIDGFIGDVSGLANGNGATGDFAGSNSQMAQVGDGDNSPLMNNFRQYLPSLPQSVECRPFVFSAGKPYEFSIDCDKINLFRGVFAFLLYVATFMYVFSTFANILRNKES
notes: as for B1

Experiments:
[1] = molecular target: T1, D2H receptor domain (human D2H …); assay: phage ELISA, plate coated with D2H domain
Experimental: (§1) 6.6. Receptor ELISA Procedure 96 well plates were coated overnight with GIT receptor, BSA and, optionally, IDE (insulin degrading enzyme, an irrelevant His-fusion protein)or hTF. The plates were blocked for one hour with 0.5% BSA-PBS. After clarification, the amplified phage were diluted 1:100 in […] plus 0.05% Tween 20 in PBS and added to the plates. Following incubation of the plates on a rotator for 1 to 2 hours, the plates were washed 5 times with 1% BSA plus 0.05% Tween 20 in PBS. […] After the plates were washed 5 times, as described above, TMB substrate was added to the wells. The plates were read at 650 nm absorbance.
Binding to fixed Caco-2 cells, D2H and BSA was examined.

[2] = molecular target: T2, hPEPT1 receptor domain (human PEPT1, …); assay: phage ELISA, OD on hPEPT1 over OD on BSA
Experimental: as §1

[3] = molecular target: T2, hPEPT1 receptor domain (human PEPT1, …); assay: phage ELISA, plate coated with hPEPT1 domain
Experimental: as §1

[4] = molecular target: T4, hSI receptor domain (human sucrase-isomaltase complex, amino acid residues 272-667), His-tag fusion protein (human, UniProt P14410 272-667); assay: phage ELISA, OD on hSI over OD on BSA
T4 construct: also called hS1; recombinant hSI; not shown: poly-histidine tag (pET vector) at the NH2-terminal end
Experimental: as §1

[5] = molecular target: T4, hSI receptor domain (human …); assay: phage ELISA, plate coated with hSI domain
Experimental: as §1

[6] = molecular target: T3, HPT1 receptor domain (human intestinal …); assay: phage ELISA, OD on HPT1 over OD on BSA
Experimental: as §1

T4 sequence (P14410 272-667, one chain of several): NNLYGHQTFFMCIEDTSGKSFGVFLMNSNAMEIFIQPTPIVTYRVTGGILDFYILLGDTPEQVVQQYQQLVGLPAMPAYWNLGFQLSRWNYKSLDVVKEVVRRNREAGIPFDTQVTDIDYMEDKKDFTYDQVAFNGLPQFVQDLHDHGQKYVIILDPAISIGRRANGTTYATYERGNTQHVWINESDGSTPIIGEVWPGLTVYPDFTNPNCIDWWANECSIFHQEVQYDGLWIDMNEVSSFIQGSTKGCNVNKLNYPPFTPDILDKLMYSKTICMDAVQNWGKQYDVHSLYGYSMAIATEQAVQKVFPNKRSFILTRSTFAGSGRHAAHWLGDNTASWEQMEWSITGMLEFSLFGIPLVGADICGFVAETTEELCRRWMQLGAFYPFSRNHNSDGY

Binder	OD [1] [OD]	also measured
B1	0.616	–
B2	–	PEPT1/BSA [2]: 11 ratio; OD [3]: 0.807 OD
B3	–	hSI/BSA [4]: 5 ratio; OD [5]: 0.342 OD
B4	0.336	–
B5	0.158	–
B6	0.293	–
B7	0.299	–
B8	0.956	–
B9	–	HPT1/BSA [6]: 1 ratio

From patent US6703362 (CYTOGEN, dated 2004)
